B1: TPR t1 (parent)
chain: GACCAAUCUGCCCUCAGAGCUCGAGAACAUCUUCGGAUGCAGAGGAGGCAGGCUUCGGUGGCGCGAUAGCGCCAACGUCCUCAACCUCCAAUGCAUCCCACCACAUGAUGAUGCCUGAAGAGCCUUGGUUUUUUG

Variants of B1 are the subject of the series. Put plainly: polymerase ribozyme fitness, log enrichment relative to wild type (log ratio); higher = more active; in vitro selection for triplet polymerase activity. The method in brief:
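A heterodimeric triplet polymerase ribozyme had each of its subunits mutagenized by PCR into a library, which was transcribed. One round of in vitro selection, done in triplicate, annealed each library with a biotinylated primer, its partner subunit and triplets, then incubated it frozen at −7 °C before gel excision of extended constructs, streptavidin-bead capture and RT-PCR. Fitness is the logarithm of genotype enrichment relative to wild-type enrichment, based on Illumina sequencing of inputs and outputs and inverse-variance-weighted replicate averages. A base-2 logarithm is used, and genotypes were kept only with ≥10 input reads and ≥1 read per output.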
Turning to C40U G93A, the “polymerase ribozyme fitness (log ratio)” value is -1.09.
In the case of G19U A43U A74U, the “polymerase ribozyme fitness (log ratio)” value is -3.22.
As to C88G C124U, the “polymerase ribozyme fitness (log ratio)” value amounted to 0.871.
As to G52A A74U, the “polymerase ribozyme fitness (log ratio)” value is -0.719.
For the variant A46U G58C C70A, the “polymerase ribozyme fitness (log ratio)” value is -2.22.
Turning to A6U C8G G44U C49A G77U G120C U130G, the “polymerase ribozyme fitness (log ratio)” value is -2.14.
As for G17C C28U G61U C85A G110A G120C, the “polymerase ribozyme fitness (log ratio)” value was -1.25.
For the variant G44U A75U U92C, the “polymerase ribozyme fitness (log ratio)” value was -1.34.
Regarding C49G G63A U78A C99A, the “polymerase ribozyme fitness (log ratio)” value was -8.17.
As to G48C G128C, the “polymerase ribozyme fitness (log ratio)” value was -2.75.
On to C11G G117U, for which the “polymerase ribozyme fitness (log ratio)” value is -1.54.
In the case of C15U G48U A74C G77C, the “polymerase ribozyme fitness (log ratio)” value is -2.27.
For G71A G77C C101G, the “polymerase ribozyme fitness (log ratio)” value is -2.79.
On to C22G A41C G44C G69U C79G A90C, for which the “polymerase ribozyme fitness (log ratio)” value is -5.69.
As for C8G U9G C70A, the figure is -1.19.
As for U78C U132C, the “polymerase ribozyme fitness (log ratio)” value is -0.13.
As for G117C U129A, the “polymerase ribozyme fitness (log ratio)” value is -6.61.
As for G23C C34U U38A A46U C86G G110C, the figure is -8.09; as for C11G C56G, 0.087.
In the case of U7G C13U A84U U96A A121C, the “polymerase ribozyme fitness (log ratio)” value turned out to be 0.875.
Consider U9C C72A A83U A90G U131C, for which the “polymerase ribozyme fitness (log ratio)” value came to 0.697.
Regarding A50C A100C C104U G120C G127U, the “polymerase ribozyme fitness (log ratio)” value amounted to 0.167.
A18C C28U: the “polymerase ribozyme fitness (log ratio)” value is -5.11.
As to C4G U125G, the “polymerase ribozyme fitness (log ratio)” value was 0.0157.
As for G48U G57U C85A C114G U129A, the figure is -6.62; as for A2U A5C G69A C86U, -6.09.
As for G60C G63A, the “polymerase ribozyme fitness (log ratio)” value was -5.52.
For C73G G113U, the “polymerase ribozyme fitness (log ratio)” value is -2.74.
U78C C80U C99U A121G: the “polymerase ribozyme fitness (log ratio)” value was -3.12.
Take G48U C76G G110A G127A: the “polymerase ribozyme fitness (log ratio)” value was -2.63.
Consider G60A C64A U112C, for which the “polymerase ribozyme fitness (log ratio)” value is -6.76.
With C64A G113A, the “polymerase ribozyme fitness (log ratio)” value was -6.92.
Consider C8A A43U, for which the “polymerase ribozyme fitness (log ratio)” value was -1.01.
As for U14A G44C G61U C85G U96C G113U, the figure is -6.21; as for U9G G42U U55A, -1.32.
As for G19A C70G C85U C114G, the figure is -7.51.
For the variant U32C G52U G77U C79A A90G C115U U126A, the “polymerase ribozyme fitness (log ratio)” value is -5.37.
As for A46U C79A C115G, the “polymerase ribozyme fitness (log ratio)” value is -5.77.
The result for A5G G60A G117A G135C reads -0.941; that for G60C U78A A91U, -2.07.
Take A5U C114A: the “polymerase ribozyme fitness (log ratio)” value is -1.69.
On to C3A C12G C56G C123U, for which the “polymerase ribozyme fitness (log ratio)” value is -0.749.
For G36U C49U A95U, the “polymerase ribozyme fitness (log ratio)” value is -3.5.
With U59C U112C, the “polymerase ribozyme fitness (log ratio)” value worked out at 1.98.
As for A90U U106G, the figure is -4.63; as for C4A G45C G120A G127C, -1.29.
As for G42C U109C, the figure is -6.86.
The result for C70A C89G U125A reads -4.36; that for A16U A50G G58A G60A C64U, -3.73; that for U21A G128C, -2.29.
Consider C12A A50C C53U A74C, for which the “polymerase ribozyme fitness (log ratio)” value was -0.606.
C73A U78C: the “polymerase ribozyme fitness (log ratio)” value is -0.268.
Turning to C70A G71U A75G C99A A121U G127U, the “polymerase ribozyme fitness (log ratio)” value was -4.8.
As for A50U A100C A111G, the figure is -2.38; as for G47A G58A C62U C101U A108G, -2.41.
In the case of C11U G93A, the “polymerase ribozyme fitness (log ratio)” value was -0.986.
Take G39U G42A G57U G117A C124G: the “polymerase ribozyme fitness (log ratio)” value is -3.25.
As for C102U U106C G113A A121C U131G, the “polymerase ribozyme fitness (log ratio)” value is -3.34.
With A6C C85A, the “polymerase ribozyme fitness (log ratio)” value is -2.67.
The result for C12G G52U reads -0.405.
For G71U U126G, the “polymerase ribozyme fitness (log ratio)” value was -2.34.
In the case of U131A, the “polymerase ribozyme fitness (log ratio)” value is -0.123.
Consider A26U G61A, for which the “polymerase ribozyme fitness (log ratio)” value is -3.03.
For the variant G51C U78A U106A, the “polymerase ribozyme fitness (log ratio)” value was -4.81.
On to G63C G122A, for which the “polymerase ribozyme fitness (log ratio)” value was -0.479.
For the variant C15A A90G G93A A103U G120U, the “polymerase ribozyme fitness (log ratio)” value was -6.55.
Take C124G U133A: the “polymerase ribozyme fitness (log ratio)” value came to 0.826.
G48A C64U: the “polymerase ribozyme fitness (log ratio)” value is 0.0683.
A5U U9C C31U G39A G120U: the “polymerase ribozyme fitness (log ratio)” value was -3.67.
U7G U92A: the “polymerase ribozyme fitness (log ratio)” value was -2.22.
On to A46U A74U A91G C123G, for which the “polymerase ribozyme fitness (log ratio)” value was -3.09.
The result for U32G C49A C70U A74G A83G G93C C114A U125G reads -7.4; that for C8G C12G G44C U96A, -0.546; that for U81A C86G, -1.48.
Take A91C G117C: the “polymerase ribozyme fitness (log ratio)” value is -1.71.
Turning to C13U C56G G58C, the “polymerase ribozyme fitness (log ratio)” value is -0.174.
A5U G71U: the “polymerase ribozyme fitness (log ratio)” value was -0.497.
A75C: the “polymerase ribozyme fitness (log ratio)” value was -0.585.
Regarding G93C U130G, the “polymerase ribozyme fitness (log ratio)” value is -1.51.
As for C20G C72U, the “polymerase ribozyme fitness (log ratio)” value is -4.16.
A5C C62U C85U C123A: the “polymerase ribozyme fitness (log ratio)” value is -1.09.
The result for A5C U14C U54A C88U C124A reads 1.25; that for C102A U112G U132A, -2.53.

Source of the values: the RNAGym collection of RNA variant scans (doi:10.1073/pnas.2313332121).
